These are literature values, as cited in PMC5979509.

As a reminder, the Kd is the equilibrium constant for the complex coming apart.

The target of this data set is Neuropilin-1 (Homo sapiens) (UniProt O14786). The experiment in a line: radioligand binding.
Chain of UniProt O14786 (O14786 22-923): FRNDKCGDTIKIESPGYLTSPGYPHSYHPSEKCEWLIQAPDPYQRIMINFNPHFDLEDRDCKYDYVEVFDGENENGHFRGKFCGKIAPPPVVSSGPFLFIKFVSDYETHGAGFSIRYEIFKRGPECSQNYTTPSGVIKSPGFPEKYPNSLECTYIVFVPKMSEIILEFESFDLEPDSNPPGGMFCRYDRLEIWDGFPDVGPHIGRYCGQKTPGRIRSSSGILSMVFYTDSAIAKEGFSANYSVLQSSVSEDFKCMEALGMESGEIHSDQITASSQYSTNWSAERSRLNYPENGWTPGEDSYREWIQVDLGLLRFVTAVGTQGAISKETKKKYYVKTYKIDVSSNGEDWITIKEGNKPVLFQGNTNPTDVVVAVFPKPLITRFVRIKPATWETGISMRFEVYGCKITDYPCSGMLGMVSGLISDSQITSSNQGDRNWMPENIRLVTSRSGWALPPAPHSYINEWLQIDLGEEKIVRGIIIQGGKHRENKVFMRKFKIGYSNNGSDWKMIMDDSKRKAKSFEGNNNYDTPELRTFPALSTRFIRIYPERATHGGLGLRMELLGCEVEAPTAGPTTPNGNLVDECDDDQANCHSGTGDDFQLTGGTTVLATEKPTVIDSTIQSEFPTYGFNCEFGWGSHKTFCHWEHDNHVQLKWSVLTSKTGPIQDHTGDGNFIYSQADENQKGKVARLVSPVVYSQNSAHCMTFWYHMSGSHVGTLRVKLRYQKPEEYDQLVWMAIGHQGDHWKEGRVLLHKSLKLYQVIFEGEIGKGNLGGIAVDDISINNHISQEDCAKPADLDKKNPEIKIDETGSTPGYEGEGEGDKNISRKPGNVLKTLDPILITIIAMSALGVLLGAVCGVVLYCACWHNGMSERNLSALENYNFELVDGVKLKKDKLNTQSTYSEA

VEGF165a (from UniProt P15692): the Kd was less than 3 nM.
